Laboratory results from article PMC6200766, “Fisetin targets YB-1/RSK axis independent of its effect on ERK signaling: insights from in vitro and in vivo melanoma models” (Scientific Reports, 2018).

What was measured:
Details in all cases: both partners purified
[1] = biological target: T1, RPS6KA3 (RSK2, 86.3 kDa) recombinant human protein, full length, HIS-tag (human, UniProt P51812 1-740); assay: SPR; Biacore T-200, 25 °C; GST-YB-1 (51-139) amine-coupled on a CM5 chip; RSK2 flowed at 50, 25, 12.5, 6.25, 3.125, 0 nM, 30 ul/min; 10 mM HEPES pH 7.4, 150 mM NaCl, 3 mM EDTA, 0.05% P20, 0.1% BSA; full kinetics
T1 construct: p90 ribosomal S6 kinase 2 (RSK2, RPS6KA3), human, full length, 86.3 kDa; source: bought: Life Technologies, Italy

[2] = biological target: T2, RPS6KA1 (RSK1, 88.5 kDa) recombinant human protein, full length, HIS-tag (human, UniProt Q15418 1-735); assay: SPR; Biacore T-200, 25 °C; GST-YB-1 (51-139), 60 RU, amine-coupled on a CM5 chip; RSK1 or RSK2 flowed at 100-0 nM without BSA, 30 ul/min; full kinetics; KD from ka and kd or steady state
T2 construct: p90 ribosomal S6 kinase 1 (RSK1, RPS6KA1), human, full length, 88.5 kDa; source: bought: Life Technologies, Italy

[3] = biological target: T1, RPS6KA3 (RSK2, 86.3 kDa) recombinant …; assay: as above

T1 sequence (P51812 whole entry): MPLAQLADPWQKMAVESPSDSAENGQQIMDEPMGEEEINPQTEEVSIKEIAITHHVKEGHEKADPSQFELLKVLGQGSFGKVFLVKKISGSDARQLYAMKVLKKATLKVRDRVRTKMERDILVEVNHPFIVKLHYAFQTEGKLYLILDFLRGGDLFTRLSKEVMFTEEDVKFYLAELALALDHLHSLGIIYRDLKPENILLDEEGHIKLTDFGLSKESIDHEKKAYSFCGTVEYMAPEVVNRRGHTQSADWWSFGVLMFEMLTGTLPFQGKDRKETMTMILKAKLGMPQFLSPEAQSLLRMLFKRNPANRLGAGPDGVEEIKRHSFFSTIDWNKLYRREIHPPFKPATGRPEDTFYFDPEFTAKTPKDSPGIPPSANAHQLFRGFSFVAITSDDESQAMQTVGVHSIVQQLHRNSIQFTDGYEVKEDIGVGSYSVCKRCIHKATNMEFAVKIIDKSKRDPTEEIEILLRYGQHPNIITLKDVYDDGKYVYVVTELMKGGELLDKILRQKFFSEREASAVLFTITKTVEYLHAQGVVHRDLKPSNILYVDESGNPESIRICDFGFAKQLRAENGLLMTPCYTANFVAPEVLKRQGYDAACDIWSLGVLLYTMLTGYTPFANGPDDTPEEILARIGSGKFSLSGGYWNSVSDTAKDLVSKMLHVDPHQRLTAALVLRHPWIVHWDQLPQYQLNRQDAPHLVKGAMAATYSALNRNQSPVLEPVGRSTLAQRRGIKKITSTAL
T2 sequence (Q15418 whole entry): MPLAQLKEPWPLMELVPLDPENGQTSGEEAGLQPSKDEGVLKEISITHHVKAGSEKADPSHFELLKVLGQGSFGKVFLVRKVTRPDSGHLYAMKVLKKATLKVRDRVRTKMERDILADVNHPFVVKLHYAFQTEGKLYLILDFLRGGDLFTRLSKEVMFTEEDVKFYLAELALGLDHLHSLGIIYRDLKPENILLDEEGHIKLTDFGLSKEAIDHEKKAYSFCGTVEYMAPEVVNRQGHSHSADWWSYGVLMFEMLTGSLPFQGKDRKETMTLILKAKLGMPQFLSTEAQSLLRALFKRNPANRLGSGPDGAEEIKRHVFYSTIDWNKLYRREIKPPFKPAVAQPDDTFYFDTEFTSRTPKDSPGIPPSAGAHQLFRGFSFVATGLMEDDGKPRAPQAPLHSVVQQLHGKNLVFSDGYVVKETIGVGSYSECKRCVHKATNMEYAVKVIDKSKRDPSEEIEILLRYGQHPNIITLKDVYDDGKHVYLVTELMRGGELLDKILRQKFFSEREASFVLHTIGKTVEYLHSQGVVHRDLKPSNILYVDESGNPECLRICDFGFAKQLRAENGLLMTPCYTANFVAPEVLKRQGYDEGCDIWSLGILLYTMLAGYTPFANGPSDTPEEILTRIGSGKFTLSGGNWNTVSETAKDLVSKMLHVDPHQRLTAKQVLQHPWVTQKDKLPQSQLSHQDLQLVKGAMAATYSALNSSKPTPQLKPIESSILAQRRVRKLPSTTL

B1: YB-1 human recombinant protein with GST-tag at N-terminal (51-139 aa) (domain or fragment)
chain: not shown
notes: 35 kDa including GST tag; Immobilised by amine coupling (EDC/NHS) on a CM5 chip with its GST tag; source: bought: Abnova Corporation, Taiwan; not shown: GST, N-terminal, kept
- Kd [1]: 402 nM
- Kd [2]: 246000 nM
- Kd [3]: 534 nM
